Experiments:
[1] = system: atopic dermatitis model mouse; experiment: Application to atopic dermatitis model mouse; assay type: in vivo; conditions: vs Tetrapodna without cholesterol modification
RAW264.7 cells [2] = experiment: Uptake of cholesterol-modified Tetrapodna by cells; assay type: cell-based
Procedure: In order to examine applicability of nucleic acid having a modifying group, Tetrapodna using cholesterol-modified DNA was prepared. […] Furthermore, uptake of each Tetrapodna by RAW264.7 cells was measured.

[3] = Evaluation of gelation at various DNA concentrations and NaCl concentrations; assay type: physicochemical; design: key: ◯: the mark “∘” is given to cases in which gelation was observed; X: the mark “x” is given to cases of a solution state (sol-state)
Procedure: […] The gel formation and the gel strength were measured by a gel strength analyzer (gel strength meter, Nakayamadenki Co., Ltd, Osaka).
Specifically, by changing the DNA concentrations of an aqueous solution of Tripodona (4-18-18) (X=4) (SEQ ID NOs.: 1, 2 and 3), Tetrapodna (4-18-18) (X=4) (SEQ ID NOs.: 2, 4, 5 and 6), Hexapodna (4-18-18) (X=4) (SEQ ID NOs.: 2, 3, 4, 7, 9 and 10) and Tetrapodna (8-16-16) (X=8) (SEQ ID NOs.: 22, 23, 24 and 25) as shown in the lines of Table 4, and by changing the NaCl concentration as shown in the rows of Table 4, whether or not a gel is formed at various DNA concentrations and NaCl concentrations was evaluated. The results are shown such that the mark “∘” is given to cases in which gelation was observed, and the mark “x” is given to cases of a solution state (sol-state).

[4] = Temperature conditions for gel formation; assay type: physicochemical; conditions: NaCl 150 mM
Procedure: Furthermore, we investigated a possibility that temperature conditions are also involved in gelation. Tetrapodna (4-18-18) (SEQ ID NOs.: 2, 4, 5 and 6), Hexapodna (4-18-18) (SEQ ID NOs.: 2, 3, 4, 7, 9 and 10) and Tetrapodna (8-16-16) (SEQ ID NOs.: 22, 23, 24 and 25) were used to examine the temperature conditions for allowing a gel be present or a sol to be present by fixing the NaCl concentration at 150 mM and changing the DNA concentration variously.

[5] = Formation of hydrogel from nucleic acid units without ligase; assay type: physicochemical; conditions: without DNA ligase
Procedure: A NaCl solution was added to an ODN solution (polypodna) such that the final Na^+ concentration was 5 to 150 mM. The gel formation and the gel strength were measured by a gel strength analyzer (gel strength meter, Nakayamadenki Co., Ltd, Osaka).
A structure to be a hydrogel (a nucleic acid monomer and an estimated nucleic acid unit) in conditions at room temperature, at 5 mM to 150 mM sodium chloride concentration (150 mM is substantially physiological concentration), and not containing a DNA ligase was elucidated. […] For convenience, nucleic acid units estimated to be formed according to the number of nucleic acid monomers capable of constituting the nucleic acid unit were represented by xxxpodna (xxxpod-like structure forming nucleic acid, xxx is substituted by tri (3), tetra (4) and the like, according to the number of nucleic acid monomers capable of constituting the nucleic acid unit). In Table 2 described below, xxxpodna is an estimated nucleic acid unit, and each of xxx-Y-N is a nucleic acid monomer that can be a constituent element of the nucleic acid unit (xxxpodna) which is mentioned above thereof. When the descriptions of Ys are different from each other, different nucleic acid units can be formed. N denotes numbering of nucleic acid monomers constituting each of the estimated nucleic acid units.
Unlike (1-1) described above, gelation can be controlled by using a nucleic acid monomer including cohesive protruding ends which are not attached to themselves (that is, not palindrome sequence).

[6] = Percentage of remaining gels with the passage of time; assay type: physicochemical; conditions: DNA 0.5 mM
Procedure: Gels were formed by adjusting the NaCl concentration at 150 mM in an aqueous solution containing Tetrapodna (12-14-14) (SEQ ID NOs.: 30, 31, 32 and 33) at a DNA concentration of 0.1 mM, 0.25 mM or 0.5 mM, and the percentage of the remaining gels was measured with the passage of time. The results are shown in a graph in the left upper side of FIG. 17.
Gels were formed in conditions at a certain DNA concentration (0.5 mM) and a certain NaCl concentration (150 mM), and the percentage of the remaining gels was measured with the passage of time by using Tetrapodna (respectively, SEQ ID NOs.: 2, 4, 5 and 6, SEQ ID NOs.: 18, 19, 20 and 21, SEQ ID NOs.: 22, 23, 24 and 25, SEQ ID NOs.: 26, 27, 28 and 29, as well as SEQ ID NOs.: 30, 31, 32 and 33) having various lengths of the cohesive protruding end (4, 6, 8, 10 or 12 bases). The results are shown in a graph in the left lower side of FIG. 17. […] When 12 hours had passed, the percentage of the remaining gels became about 50%.
Gels were formed by variously changing the NaCl concentrations (5 mM, 50 mM, 100 mM or 150 mM) of an aqueous solution containing Tetrapodna (12-14-14) (SEQ ID NOs.: 30, 31, 32 and 33) at a DNA concentration of 0.5 mM, and the percentage of the remaining gels was measured with the passage of time. The results are shown in a graph in the right upper side of FIG. 17. […] At a low salt concentration (5 mM), almost all the formed gels became in a sol state when about 6 hours had passed. When the salt concentration was increased to 50 mM, solation tendency was weakened, a change from a gel into a sol occurred moderately (about 40% when 12 hours had passed).
The percentage of the remaining gels was measured with the passage of time in the same manner as in (8-3) except that Tetrapodna (4-18-18) (SEQ ID NOs.: 2, 4, 5 and 6) was used instead of Tetrapodna (12-14-14) (SEQ ID NOs.: 30, 31, 32 and 33). The results are shown in a graph in the right lower side of FIG. 17. […] In (8-3), Tetrapodna (12-14-14) (the length of the cohesive protruding end is 12 bases) was used. In (8-4), Tetrapodna (4-18-18) (the length of the cohesive protruding end is 4 bases) was used.

[7] = Release of encapsulated OVA from gel; assay type: physicochemical; conditions: DNA 0.5 mM, OVA 2.5 μg/μl
Procedure: By controlling the nature and salt concentration of protruding ends of Tetrapodna, the change of the releasing rate of an encapsulated compound in a gel was examined. Specifically, Tetrapodna (4-18-18) (SEQ ID NOs.: 2, 4, 5 and 6) including a cohesive protruding end and Tetrapodna (4-18-18) (SEQ ID NOs.: 58, 59, 60 and 61) as a control including a non-cohesive protruding end were used. In an aqueous solution of Tetrapodna which had been prepared such that the DNA concentration was 0.5 mM, the NaCl concentration was adjusted to 5 mM or 150 mM. When the NaCl concentration was increased, egg albumin (OVA, concentration of 2.5 μg/μl) was added as an encapsulated substance to cause gelation, and then the percentage of OVA released from the gel with the passage of time was measured.

[8] = Gel formation in a living body after subcutaneous injection of sol; assay type: in vivo; conditions: total DNA 2 mM, NaCl 5 mM, back of mouse
Text: The hydrogel produced in Example 1 was able to be prepared in a sol state by appropriately adjusting conditions. Therefore, the hydrogel was able to be administered in a living body by injection. […] Thus, it was confirmed that a gel is formed in a living body only by preparing the hydrogel in accordance with the present invention in a sol state and administering the hydrogel to a living body.

[9] = system: mouse dendritic cell DC2.4; experiment: Stimulation of dendritic cells by gel; assay type: cell-based; conditions: gel brought into contact with DC2.4
splenocytes = experiment: IFN-γ production by splenocytes after immunization with OVA in gel; assay type: in vivo, mouse; conditions: 100 μg OVA + 100 μg DNA, spleen on Day 14, vs only OVA
[10] = Melting temperature (Tm) from melting curve, absorbance at 260 nm; assay type: physicochemical; conditions: sodium concentration of 5 mM
Procedure: Each DNA preparation was prepared in the same manner as in Example 1 by using the sequences in Table 1. The absorbance of polypodna or other DNA preparations at 260 nm was measured by using a Shimadzu UV-1600 PC spectrometer (Kyoto, Japan) equipped with a TMSPC-8 temperature controller 18. The melting temperature (Tm) was obtained from the melting curve at the sodium concentration of 5 mM in each preparation.

RAW264.7 cells [11] = experiment: Release of TNF-α from RAW264.7 cells (ELISA); assay type: cell-based, murine; conditions: 0.5, 1 or 2 μg/ml, 8 hours
Procedure: In a RPMI1640 medium to which 10% heat inactivated FBS, 0.15% sodium bicarbonate, 100 units/ml penicillin, […] streptomycin and 2 mML-glutamine were added, murine macrophage-like RAW264.7 cells were proliferated in humidified air containing 5% CO2 at 37° C. Subsequently, cells were seeded on a 24-well or 96-well culture plate at a density of 5×10^5 cells/well, and cultured for 24 hours before use.
The RAW264.7 cells were seeded on a 24-well plate at a density of 2.5×10^5 cells/well, and incubated for 24 hours before treatment. Then, ssDNA, dsDNA, or several kinds of polypodnas diluted in 0.5 ml of Opti-MEM were added to the cells at a final concentration of 0.5, 1 or 2 μg/ml. The cells were incubated for 8 hours, the supernatant was recovered and stored at −70° C. before use. The concentrations of TNF-α and IL-6 in the supernatant were measured by Enzyme-Linked Immunosorbent Assay (ELISA) using an OptEIA™ set (Pharmingen, San Diego, Calif., USA).
The same experiment as in Example 22 was carried out except that each poolypodna preparation was prepared in the same manner as in Example 1 by using the sequences in Table 1. However, the added DNA was equal amount in each case.

B1: Chol-CpG DNA: Tetrapodna (SEQ ID NOs.: 2, 4, 5 and 6) which contains a cholesterol-modified nucleic acid monomer and a CpG motif (conjugate)
DNA 1: ACGTTCGACAGCGTCAACGTGAAACGTGAAGCGTCTGCGA
DNA 2: ACGTTCGCTGACGTTGCAGACATCACGTTGACGCTGTCGA
DNA 3: ACGTTCGCAGACGCTTCACGTTGCAGACAGACGTTGACGA
DNA 4: ACGTTCGTCAACGTCTGTCTGCTGTCTGCAACGTCAGCGA
modifications: DNA, phosphodiester; one monomer cholesterol-modified, strand and position not given here
In the case of B1, the tissue transferability ([1]; applied to skin) is reported as “increased”, the skin inflammation [1] is reported as “better suppressed” and the “uptake by RAW264.7 cells” value (RAW264.7 cells [2]) is reported as “incorporated into RAW264.7 cells better than Tetrapodna as a control which does not have cholesterol modification”.

B2: Tetrapodna(4-18-18): four ODNs, SEQ ID NOs.: 2, 4, 5 and 6, 4-base cohesive protruding end, contains CpG motif (nucleic acid)
DNA 1: ACGTTCGACAGCGTCAACGTGAAACGTGAAGCGTCTGCGA
DNA 2: ACGTTCGCTGACGTTGCAGACATCACGTTGACGCTGTCGA
DNA 3: ACGTTCGCAGACGCTTCACGTTGCAGACAGACGTTGACGA
DNA 4: ACGTTCGTCAACGTCTGTCTGCTGTCTGCAACGTCAGCGA
modifications: unmodified DNA
For B2, the gelation ([3]; Na+ 2 mM, DNA 0.8 mM) was “◯”, the gelation ([3]; Na+ 20 mM, DNA 0.6 mM) was “X” and the gelation ([3]; Na+ 20 mM, DNA 0.7 mM) was “X”. For the same molecule, the gelation ([3]; Na+ 50 mM, DNA 0.6 mM) was “◯”, the gelation ([3]; Na+ 50 mM, DNA 0.7 mM) was “◯” and the gelation ([3]; Na+ 100 mM, DNA 0.5 mM) was “X”. For the same molecule, the gelation ([3]; Na+ 150 mM, DNA 0.4 mM) was “X”, the gelation ([3]; Na+ 150 mM, DNA 0.5 mM) was “◯” and the “temperature at which gel is present” value ([4]; DNA concentration 0.4-0.5 mM) was “gel at 45 °C”. The “temperature at which sol is present” value ([4]; DNA concentration 0.4-0.5 mM) was “sol at 55 °C”, the “temperature at which gel is present” value ([4]; DNA concentration 0.6-0.8 mM) was “gel at 55 °C” and the “temperature at which sol is present” value ([4]; DNA concentration 0.6-0.8 mM) was “sol at 65 °C”. For the same molecule, the gel formation [5] was “gels can be prepared”, the “percentage of the remaining gels with the passage of time” value ([6]; NaCl 150 mM) was “a gel became a sol with the passage of time” and the “percentage of the remaining gels” value ([6]; NaCl 150 mM, 12 hours) was “about 50%”. The “percentage of the remaining gels, dependence on salt concentration” value ([6]; NaCl 5, 50, 100 or 150 mM) was “as the salt concentration is higher, it tends to be present not in a sol but in a gel”, the “release of OVA from the gel” value ([7]; NaCl 5 mM) was “all OVA was released for a short time” and the “percentage of OVA released” value ([7]; NaCl 150 mM, 24 hours) was “about 60%”. For the same molecule, the “gel formation in a living body” value [8] was “gelation occurred in a living body after administration”, the “immunological stimulation of dendritic cell” value [9] was “significantly immunologically stimulated a mouse dendritic cell” and the “production of IFN-γ by splenocytes stimulated with OVA” value (splenocytes) was “remarkable increase in production amount of IFN-γ”.

B3: dsDNA36: double strand of dsDNA36-1 and dsDNA36-2, SEQ ID Nos. 108 and 109 (nucleic acid)
chain 1: TCGCTGACGTTGCAGACATCACGTTGACGCTGTCGA
chain 2: TCGACAGCGTCAACGTGATGTCTGCAACGTCAGCGA
modifications: unmodified DNA
For B3, the Tm [10] was 66.5 °C and the TNF-α release (RAW264.7 cells [11]) was “the TNF-α release hardly occurred”.
